# Results taken from article PMC9482650, “Quantitative fragmentomics allow affinity mapping of interactomes” (Nature Communications, 2022).
# Where a chain is given by its changes, count along the chain named.
# T1: APBA2_2, Q99767
# T1 sequence (Q99767 654-744, limits assumed, looked up): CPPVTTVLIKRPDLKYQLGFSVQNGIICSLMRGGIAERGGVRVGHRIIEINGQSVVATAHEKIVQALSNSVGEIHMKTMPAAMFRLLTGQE
# T2: ARHGAP21, Q5T5U3
# T2 sequence (Q5T5U3 45-169, limits assumed, looked up): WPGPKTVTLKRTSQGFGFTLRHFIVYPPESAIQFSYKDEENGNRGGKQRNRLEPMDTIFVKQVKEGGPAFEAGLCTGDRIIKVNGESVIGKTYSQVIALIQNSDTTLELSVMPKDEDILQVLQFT
# T3: GRIP1_4, Q9Y3R0
# T3 sequence (Q9Y3R0 467-571, limits assumed, looked up): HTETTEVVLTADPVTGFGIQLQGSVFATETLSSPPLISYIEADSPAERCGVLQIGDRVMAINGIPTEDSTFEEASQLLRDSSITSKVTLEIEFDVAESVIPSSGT
# T4: HTRA4, P83105
# T4 sequence (P83105 378-476, limits assumed, looked up): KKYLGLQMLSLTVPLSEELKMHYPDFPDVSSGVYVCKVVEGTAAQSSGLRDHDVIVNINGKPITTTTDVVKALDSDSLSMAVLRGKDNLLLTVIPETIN
# T5: LIN7B, Q9HAP6
# T5 sequence (Q9HAP6 88-185, limits assumed, looked up): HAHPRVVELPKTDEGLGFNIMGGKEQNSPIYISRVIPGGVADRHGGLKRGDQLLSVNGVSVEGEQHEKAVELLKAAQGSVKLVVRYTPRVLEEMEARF
# T6: LIN7C, Q9NUP9
# T6 sequence (Q9NUP9 88-185, limits assumed, looked up): T5 sequence (Q9HAP6 88-185, limits assumed, looked up) with A2S, D13E, V35I, V40I, Q65H, S79K, R89K, A96S
# T7: LNX2_3, Q8N448
# T7 sequence (Q8N448 463-564, limits assumed, looked up): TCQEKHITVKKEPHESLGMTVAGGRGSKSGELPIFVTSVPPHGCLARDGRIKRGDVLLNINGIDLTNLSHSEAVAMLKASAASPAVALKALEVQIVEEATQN
# T8: NHERF3_4, Q5T2W1
# T8 sequence (Q5T2W1 373-468, limits assumed, looked up): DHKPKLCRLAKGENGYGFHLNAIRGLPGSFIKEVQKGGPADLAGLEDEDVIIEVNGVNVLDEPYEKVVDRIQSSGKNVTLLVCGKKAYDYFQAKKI
# T9: PDZD2_2, O15018
# T9 sequence (O15018 329-429, limits assumed, looked up): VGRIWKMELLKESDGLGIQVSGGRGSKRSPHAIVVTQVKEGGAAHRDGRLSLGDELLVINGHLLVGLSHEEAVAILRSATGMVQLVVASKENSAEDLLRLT
# T10: PDZRN3_1, Q9UPQ7
# T10 sequence (Q9UPQ7 244-349, limits assumed, looked up): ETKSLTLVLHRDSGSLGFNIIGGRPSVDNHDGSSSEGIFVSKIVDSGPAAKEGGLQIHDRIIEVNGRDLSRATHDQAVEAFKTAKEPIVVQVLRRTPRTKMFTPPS
# T11: SNTB1, Q13884
# T11 sequence (Q13884 107-205, limits assumed, looked up): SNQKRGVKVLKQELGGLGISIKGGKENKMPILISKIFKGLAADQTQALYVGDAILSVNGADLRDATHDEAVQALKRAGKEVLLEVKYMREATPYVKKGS
# T12: SNTG2, Q9NY99
# T12 sequence (Q9NY99 68-166, limits assumed, looked up): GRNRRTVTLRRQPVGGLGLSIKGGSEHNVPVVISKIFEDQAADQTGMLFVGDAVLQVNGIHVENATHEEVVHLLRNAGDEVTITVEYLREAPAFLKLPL
# B1: TRMT13, Q9NUP7 (peptide)
# chain: NHSSSPETTA
# B2: RASL11B, Q9BPW5 (peptide)
# chain: SAKVRTVTSV
# Target: T1, APBA2_2, Q99767
# Experiment: holdup assay
# Set-up: key: below the threshold = too weak to quantify, mostly under pKd 3.1 to 4
# Details: plain residues with an end cap or a label only (N-terminal biotin on a linker: ado-ado)
row,Binder,pKd
1,B1,below the threshold
2,B2,below the threshold

# Target: T2, ARHGAP21, Q5T5U3
# Experiment: holdup assay
# Set-up: key: below the threshold = too weak to quantify, mostly under pKd 3.1 to 4
# Details: plain residues with an end cap or a label only (N-terminal biotin on a linker: ado-ado)
row,Binder,pKd
1,B1,below the threshold
2,B2,below the threshold

# Target: DLG1_2, Q12959
# Sequence (Q12959 314-412): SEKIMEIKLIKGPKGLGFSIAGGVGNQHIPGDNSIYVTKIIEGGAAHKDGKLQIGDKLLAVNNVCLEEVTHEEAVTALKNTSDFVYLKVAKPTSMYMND
# Experiment: holdup assay
# Set-up: key: below the threshold = too weak to quantify, mostly under pKd 3.1 to 4
# Details: plain residues with an end cap or a label only (N-terminal biotin on a linker: ado-ado)
row,Binder,pKd
1,B1,below the threshold
2,B2,5.21

# Target: DLG1_3, Q12959
# Sequence (Q12959 457-571): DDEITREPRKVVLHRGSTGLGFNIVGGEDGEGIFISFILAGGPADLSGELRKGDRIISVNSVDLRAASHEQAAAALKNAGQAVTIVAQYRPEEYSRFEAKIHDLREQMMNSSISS
# Experiment: holdup assay
# Set-up: key: below the threshold = too weak to quantify, mostly under pKd 3.1 to 4
# Details: plain residues with an end cap or a label only (N-terminal biotin on a linker: ado-ado)
row,Binder,pKd
1,B1,below the threshold
2,B2,4.54

# Target: DLG4_3, P78352
# Sequence (P78352 306-403): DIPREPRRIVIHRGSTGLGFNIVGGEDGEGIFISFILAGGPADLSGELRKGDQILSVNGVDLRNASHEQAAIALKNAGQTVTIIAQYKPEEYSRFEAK
# Experiment: holdup assay
# Set-up: key: below the threshold = too weak to quantify, mostly under pKd 3.1 to 4
# Details: plain residues with an end cap or a label only (N-terminal biotin on a linker: ado-ado)
row,Binder,pKd
1,B1,below the threshold
2,B2,4.93

# Target: FRMPD2_1, Q68DX3
# Sequence (Q68DX3 770-861): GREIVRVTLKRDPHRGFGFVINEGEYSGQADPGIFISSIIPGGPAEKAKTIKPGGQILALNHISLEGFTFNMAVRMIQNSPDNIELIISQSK
# Experiment: holdup assay
# Set-up: key: below the threshold = too weak to quantify, mostly under pKd 3.1 to 4
# Details: plain residues with an end cap or a label only (N-terminal biotin on a linker: ado-ado)
row,Binder,pKd
1,B1,below the threshold
2,B2,below the threshold

# Target: T3, GRIP1_4, Q9Y3R0
# Experiment: holdup assay
# Set-up: key: below the threshold = too weak to quantify, mostly under pKd 3.1 to 4
# Details: plain residues with an end cap or a label only (N-terminal biotin on a linker: ado-ado)
row,Binder,pKd
1,B1,below the threshold
2,B2,below the threshold

# Target: T4, HTRA4, P83105
# Experiment: holdup assay
# Set-up: key: below the threshold = too weak to quantify, mostly under pKd 3.1 to 4
# Details: plain residues with an end cap or a label only (N-terminal biotin on a linker: ado-ado)
row,Binder,pKd
1,B1,below the threshold
2,B2,4.06

# Target: IL16_4, Q14005
# Sequence (Q14005 1229-1329): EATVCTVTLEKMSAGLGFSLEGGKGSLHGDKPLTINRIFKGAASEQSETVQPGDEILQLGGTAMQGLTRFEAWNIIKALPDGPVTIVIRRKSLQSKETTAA
# Experiment: holdup assay
# Set-up: key: below the threshold = too weak to quantify, mostly under pKd 3.1 to 4
# Details: plain residues with an end cap or a label only (N-terminal biotin on a linker: ado-ado)
row,Binder,pKd
1,B1,below the threshold
2,B2,below the threshold

# Target: Inadl_3, Q8NI35
# Sequence (Q8NI35 359-469): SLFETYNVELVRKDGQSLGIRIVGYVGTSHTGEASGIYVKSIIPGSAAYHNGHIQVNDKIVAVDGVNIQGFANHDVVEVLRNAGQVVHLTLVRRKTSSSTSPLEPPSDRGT
# Experiment: holdup assay
# Set-up: key: below the threshold = too weak to quantify, mostly under pKd 3.1 to 4
# Details: plain residues with an end cap or a label only (N-terminal biotin on a linker: ado-ado)
row,Binder,pKd
1,B1,below the threshold
2,B2,below the threshold

# Target: Inadl_6, Q8NI35
# Sequence (Q8NI35 1058-1167): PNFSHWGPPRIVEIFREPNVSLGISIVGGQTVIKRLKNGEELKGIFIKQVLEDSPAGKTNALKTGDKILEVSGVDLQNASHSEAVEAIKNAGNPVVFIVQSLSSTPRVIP
# Experiment: holdup assay
# Set-up: key: below the threshold = too weak to quantify, mostly under pKd 3.1 to 4
# Details: plain residues with an end cap or a label only (N-terminal biotin on a linker: ado-ado)
row,Binder,pKd
1,B1,below the threshold
2,B2,below the threshold

# Target: LAP2, Q96RT1
# Sequence (Q96RT1 other isoform, or with tags, fused parts or gaps): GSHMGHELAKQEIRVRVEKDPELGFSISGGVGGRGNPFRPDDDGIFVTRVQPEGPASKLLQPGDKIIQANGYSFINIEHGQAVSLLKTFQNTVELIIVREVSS
# Experiment: holdup assay
# Set-up: key: below the threshold = too weak to quantify, mostly under pKd 3.1 to 4
# Details: plain residues with an end cap or a label only (N-terminal biotin on a linker: ado-ado)
row,Binder,pKd
1,B1,below the threshold
2,B2,3.66

# Target: T5, LIN7B, Q9HAP6
# Experiment: holdup assay
# Set-up: key: below the threshold = too weak to quantify, mostly under pKd 3.1 to 4
# Details: plain residues with an end cap or a label only (N-terminal biotin on a linker: ado-ado)
row,Binder,pKd
1,B1,below the threshold
2,B2,below the threshold

# Target: T6, LIN7C, Q9NUP9
# Experiment: holdup assay
# Set-up: key: below the threshold = too weak to quantify, mostly under pKd 3.1 to 4
# Details: plain residues with an end cap or a label only (N-terminal biotin on a linker: ado-ado)
row,Binder,pKd
1,B1,below the threshold
2,B2,below the threshold

# Target: LNX1_2, Q8TBB1
# Sequence (Q8TBB1 371-470): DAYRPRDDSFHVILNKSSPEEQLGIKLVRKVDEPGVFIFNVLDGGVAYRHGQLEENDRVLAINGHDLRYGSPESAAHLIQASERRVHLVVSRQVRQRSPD
# Experiment: holdup assay
# Set-up: key: below the threshold = too weak to quantify, mostly under pKd 3.1 to 4
# Details: plain residues with an end cap or a label only (N-terminal biotin on a linker: ado-ado)
row,Binder,pKd
1,B1,below the threshold
2,B2,3.92

# Target: LNX1_3, Q8TBB1
# Sequence (Q8TBB1 500-596): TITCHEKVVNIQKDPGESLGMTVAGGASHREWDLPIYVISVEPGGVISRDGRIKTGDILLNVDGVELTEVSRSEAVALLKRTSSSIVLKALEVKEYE
# Experiment: holdup assay
# Set-up: key: below the threshold = too weak to quantify, mostly under pKd 3.1 to 4
# Details: plain residues with an end cap or a label only (N-terminal biotin on a linker: ado-ado)
row,Binder,pKd
1,B1,below the threshold
2,B2,below the threshold

# Target: T7, LNX2_3, Q8N448
# Experiment: holdup assay
# Set-up: key: below the threshold = too weak to quantify, mostly under pKd 3.1 to 4
# Details: plain residues with an end cap or a label only (N-terminal biotin on a linker: ado-ado)
row,Binder,pKd
1,B1,below the threshold
2,B2,below the threshold

# Target: MAGI2_4, Q86UL8
# Sequence (Q86UL8 772-865): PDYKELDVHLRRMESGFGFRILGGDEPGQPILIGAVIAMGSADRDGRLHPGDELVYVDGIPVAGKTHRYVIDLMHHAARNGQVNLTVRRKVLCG
# Experiment: holdup assay
# Set-up: key: below the threshold = too weak to quantify, mostly under pKd 3.1 to 4
# Details: plain residues with an end cap or a label only (N-terminal biotin on a linker: ado-ado)
row,Binder,pKd
1,B1,below the threshold
2,B2,4.19

# Target: T8, NHERF3_4, Q5T2W1
# Experiment: holdup assay
# Set-up: key: below the threshold = too weak to quantify, mostly under pKd 3.1 to 4
# Details: plain residues with an end cap or a label only (N-terminal biotin on a linker: ado-ado)
row,Binder,pKd
1,B1,below the threshold
2,B2,below the threshold

# Target: T9, PDZD2_2, O15018
# Experiment: holdup assay
# Set-up: key: below the threshold = too weak to quantify, mostly under pKd 3.1 to 4
# Details: plain residues with an end cap or a label only (N-terminal biotin on a linker: ado-ado)
row,Binder,pKd
1,B1,below the threshold
2,B2,4.25

# Target: T10, PDZRN3_1, Q9UPQ7
# Experiment: holdup assay
# Set-up: key: below the threshold = too weak to quantify, mostly under pKd 3.1 to 4
# Details: plain residues with an end cap or a label only (N-terminal biotin on a linker: ado-ado)
row,Binder,pKd
1,B1,below the threshold
2,B2,3.71

# Target: SCRIB_2, Q14160
# Sequence (Q14160 857-960): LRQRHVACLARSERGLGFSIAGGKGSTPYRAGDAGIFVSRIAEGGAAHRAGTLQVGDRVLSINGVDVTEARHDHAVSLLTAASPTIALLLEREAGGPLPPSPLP
# Experiment: holdup assay
# Set-up: key: below the threshold = too weak to quantify, mostly under pKd 3.1 to 4
# Details: plain residues with an end cap or a label only (N-terminal biotin on a linker: ado-ado)
row,Binder,pKd
1,B1,below the threshold
2,B2,below the threshold

# Target: T11, SNTB1, Q13884
# Experiment: holdup assay
# Set-up: key: below the threshold = too weak to quantify, mostly under pKd 3.1 to 4
# Details: plain residues with an end cap or a label only (N-terminal biotin on a linker: ado-ado)
row,Binder,pKd
1,B1,below the threshold
2,B2,3.64

# Target: T12, SNTG2, Q9NY99
# Experiment: holdup assay
# Set-up: key: below the threshold = too weak to quantify, mostly under pKd 3.1 to 4
# Details: plain residues with an end cap or a label only (N-terminal biotin on a linker: ado-ado)
row,Binder,pKd
1,B1,below the threshold
2,B2,3.6

# Target: TJP1_3, Q07157
# Sequence (Q07157 416-512): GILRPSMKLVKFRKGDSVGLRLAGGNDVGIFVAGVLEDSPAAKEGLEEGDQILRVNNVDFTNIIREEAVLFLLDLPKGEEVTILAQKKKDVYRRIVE
# Experiment: holdup assay
# Set-up: key: below the threshold = too weak to quantify, mostly under pKd 3.1 to 4
# Details: plain residues with an end cap or a label only (N-terminal biotin on a linker: ado-ado)
row,Binder,pKd
1,B1,below the threshold
2,B2,below the threshold
